Here are results for 41 sequences from the supplement of paper PMC10126150.

The data set relates to ATP. Put plainly: switch fluorescence ratio, 500 uM ATP over buffer (Cy3 cluster intensity, sum of 5 cycles each) (fold (ratio)); higher = stronger signal-on switching upon ATP binding; sequences stand for … in TCGTCGGCAGCGTCAGATGTGTATAAGAGACAGTTTTTTTTTTTTTTTTTTTTTTTTT…TC. The note with it: aptamer strand: ATP DNA aptamer (quencher-CACCTGGGGGAGTATTGCGGAGGAAGG + anchor), 100 nM annealed; ATP concentration: 500 uM. An outline of the steps: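 Cy3-labelled switching-strand clusters on a modified Illumina MiSeq flow-cell were annealed to 100 nM quencher-labelled ATP aptamer and imaged first in selection buffer, then after 15 min with 500 uM ATP at 22 °C. NaOH stripping and re-annealing separated each of five buffer/ATP cycles, and clusters outside 100-1000 RFU were excluded. The fluorescence ratio sums target-cycle Cy3 intensity over buffer-cycle Cy3 intensity per cluster and averages it per switch-domain sequence.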

± gives the standard deviation of the averaged measurements.
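Also: ATP exposure 15 min at 22 °C before imaging.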

Regarding TTTTTGATTT, the switch fluorescence ratio came to 1.01 ± 0.036.

Turning to TTTTTGCATT, the switch fluorescence ratio was 1.038 ± 0.0028. For TTTTTGCCGA, the switch fluorescence ratio was 1.01 ± 0.052. As for TTTTTGCCGG, the figure is 1.01 ± 0.014; as for TTTTTGCGAA, 1.033 ± 0.0011. TTTTTGCGGT: the switch fluorescence ratio came out at 0.978 ± 0.025. On to TTTTTGCTGG, for which the switch fluorescence ratio was 0.99 ± 0.029. Consider TTTTTGCTTA, for which the switch fluorescence ratio was 0.993 ± 0.013.

For TTTTTGGAAA, the switch fluorescence ratio turned out to be 1.01 ± 0.051. On to TTTTTGGAGG, for which the switch fluorescence ratio was determined as 1 ± 0.034. As for TTTTTGGATT, the figure is 1 ± 0.032; as for TTTTTGGCTA, 1 ± 0.021; as for TTTTTGTCCA, 1 ± 0.041. With TTTTTGTCGT, the switch fluorescence ratio amounted to 0.983 ± 0.025. As for TTTTTGTTGC, the switch fluorescence ratio stood at 1.02 ± 0.02. Consider TTTTTTAACG, for which the switch fluorescence ratio stood at 0.9973 ± 0.0053. Turning to TTTTTTACCC, the switch fluorescence ratio came to 1.01 ± 0.028. Turning to TTTTTTAGCT, the switch fluorescence ratio was 1.01 ± 0.055. For TTTTTTATTG, the switch fluorescence ratio is 0.989 ± 0.029. As for TTTTTTCATA, the figure is 0.9974 ± 0.0093; as for TTTTTTCCGC, 1.34 ± 0.35. On to TTTTTTCCTT, for which the switch fluorescence ratio is 1.01 ± 0.034. In the case of TTTTTTCGAA, the switch fluorescence ratio turned out to be 0.998 ± 0.032. As to TTTTTTCGAG, the switch fluorescence ratio amounted to 1 ± 0.05. In the case of TTTTTTCGCG, the switch fluorescence ratio worked out at 1 ± 0.016. For the sequence TTTTTTCTGA, the switch fluorescence ratio came to 1.01 ± 0.028. Take TTTTTTCTGT: the switch fluorescence ratio was found to be 1.01 ± 0.029.

Regarding TTTTTTCTTT, the switch fluorescence ratio worked out at 1.01 ± 0.033. Take TTTTTTGAAC: the switch fluorescence ratio came out at 1.01 ± 0.03. TTTTTTGAT: the switch fluorescence ratio is 1.01 ± 0.032.

Take TTTTTTGCAA: the switch fluorescence ratio is 1.06 ± 0.061. Regarding TTTTTTGCG, the switch fluorescence ratio was found to be 1.01 ± 0.063. With TTTTTTGGAC, the switch fluorescence ratio was determined as 1.01 ± 0.045. Consider TTTTTTGGCG, for which the switch fluorescence ratio was determined as 1.02 ± 0.15. TTTTTTGGTT: the switch fluorescence ratio came to 0.997 ± 0.026. Consider TTTTTTGTAA, for which the switch fluorescence ratio worked out at 1.01 ± 0.036. Turning to TTTTTTGTAG, the switch fluorescence ratio was found to be 1.01 ± 0.016. In the case of TTTTTTTAAG, the switch fluorescence ratio is 1 ± 0.018. As for TTTTTTTCTT, the figure is 0.994 ± 0.024; as for TTTTTTTGCA, 1 ± 0.024; as for TTTTTTTGTT, 1 ± 0.034.
